Laboratory results: patent US20260042834A1, “ANTI-CORTICOTROPIN-RELEASING HORMONE ANTIBODIES AND POLYCYSTIC OVARY SYNDROME” (HBM ALPHA THERAPEUTICS, INC., priority 2022, published 2026)
Where a chain is given by its changes, count along the chain named.

T1: biotinylated CRH (Homo sapiens, UniProt P06850)
T1 construct: purchased GL Biochem 784751
T1 sequence (P06850 154-194): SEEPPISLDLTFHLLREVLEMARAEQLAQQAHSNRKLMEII

B1: PR302341-21: humanized variant of Series 10 mAb PR302341; VH SEQ ID NO: 284, VL SEQ ID NO: 340 (antibody, V domains shown)
VH: QVQLVQSGAEVKKPGASVKVSCKASGYTFTDYFMKWVRQAPGQRLEWMGVINPNNGDIFYNQKFKGRVTITVDKSASTAYMELSSLRSEDTAVYYCARGTDRALFAYWGQGTLVTVSS
VL: DVVMTQSPLSLPVTLGQPASISCRSGQSIVHSDGNTYLEWYQQRPGQSPRLLIYKVSNRFSGVPDRFSGSGSGTDFTLKISRVEAEDLGVYYCFQGSHIPWTFGGGTKVEIK
modifications: PR302341-16 VH, PR302341-21 VH, PR302341-24 VH, PR302341-25 VH; PR302341-19 VL, PR302341-20 VL, PR302341-21 VL, PR302341-22 VL,PR302341-23 VL, PR302341-28 VL, PR302341-29 VL, PR302341-2 VL,PR302341-41 VL, PR302341-55 VL, PR302341-56 VL, PR302341-57 VL,PR302341-
B2: PR302341-23: humanized variant of Series 10 mAb PR302341; VH SEQ ID NO: 286, VL SEQ ID NO: 340 (antibody, V domains shown)
VH: B1 VH with R44G, I70M, A76I, S85R, E89D
VL: B1 VL
modifications: PR302341-18 VH, PR302341-23 VH, PR302341-26 VH, PR302341-27 VH,PR302341-30 VH, PR302341-31 VH, PR302341-42 VH; PR302341-19 VL, PR302341-20 VL, PR302341-21 VL, PR302341-22 VL,PR302341-23 VL, PR302341-28 VL, PR302341-29 VL, PR302341-2 VL,PR302341-41 VL, PR302341-55 VL, PR302341-56 VL, PR302341-57 VL,PR302341-
B3: PR302341-24: humanized variant of Series 10 mAb PR302341; VH SEQ ID NO: 284, VL SEQ ID NO: 336 (antibody, V domains shown)
VH: B1 VH
VL: B1 VL with S7T, L11S, S48P, S72A
modifications: PR302341-16 VH, PR302341-21 VH, PR302341-24 VH, PR302341-25 VH; PR302341-10 VL, PR302341-24 VL, PR302341-26 VL, PR302341-43 VL,PR302341-44 VL, PR302341-45 VL, PR302341-4 VL
B4: PR302334-8: humanized variant of Series 9 mAb PR302334; VH SEQ ID NO: 273, VL SEQ ID NO: 332 (antibody, V domains shown)
VH: EVQLVESGGGLVQPGGSLRLSCAASGFTFSTYAMSWVRQAPGKGLEWVASIRSGGTTYYPDSVKGRFTISRDNSKNTLYLQMNSLRAEDTAVYYCTRGIDWGQGTTVTVSS
VL: EIVMTQSPATLSVSPGERATLSCKASQSVNNDVAWYQQKPGQAPRLLIYYASNRYTGIPARFSGSGSGTEFTLTISSLQSEDLAVYFCQQDYSSWTFGGGTKVEIK
modifications: PR302334-10 VH, PR302334-11 VH, PR302334-12 VH, PR302334-14 VH,PR302334-7 VH, PR302334-8 VH, PR302334-9 VH; PR302334-22 VL, PR302334-2 VL, PR302334-8 VL
B5: PR302334: Series 9 anti-CRH mAb from immunized wildtype mice; VH SEQ ID NO: 272, VL SEQ ID NO: 331 (antibody, V domains shown)
VH: EVKLVESGGGLVKPGGSLKLSCAASGFTFSTYAMSWVRQTPEKRLEWVASIRSGGTTYYPDSVKGRFTISRDNARNILYLQMSSLRSEDTAIYYCTRGIDWGQGTLVTVSA
VL: NIVMTQTPKFLLVSAGDRITITCKASQSVNNDVAWYQQKPGQSPKLLIYYASNRYTGVPDRFTGSGYGTDFTFTISTVQAEDLAVYFCQQDYSSWTFGGGTNLEIK
modifications: PR302334-1 VH, PR302334-2 VH, PR302334-3 VH, PR302334-4 VH,PR302334-5 VH, PR302334-6 VH, PR302334 VH; PR302334-14 VL, PR302334-15 VL, PR302334-16 VL, PR302334-17 VL,PR302334-18 VL, PR302334 VL
B6: PR302334-25: humanized variant of Series 9 mAb PR302334; VH SEQ ID NO: 275, VL SEQ ID NO: 330 (antibody, V domains shown)
VH: B4 VH with Q13K, S74A, T77S
VL: DIQMTQSSLSASVSLGDRVTITCKASQSVNNDVAWYQQKPGKAPRLLIYYASNRYTGVPSRFSGSGSGTDFTFTISSLQPEDLATYFCQQDYSSWTFGGGTKVEIK
modifications: PR302334-16 VH, PR302334-24 VH, PR302334-25 VH; PR302334-12 VL, PR302334-25 VL, PR302334-27 VL, PR302334-6 VL
B7: PR302334-11: humanized variant of Series 9 mAb PR302334; VH SEQ ID NO: 273, VL SEQ ID NO: 329 (antibody, V domains shown)
VH: B4 VH
VL: B6 VL with L83I, F87Y
modifications: PR302334-10 VH, PR302334-11 VH, PR302334-12 VH, PR302334-14 VH,PR302334-7 VH, PR302334-8 VH, PR302334-9 VH; PR302334-11 VL, PR302334-5 VL
B8: PR302309: Series 7 anti-CRH mAb from immunized wildtype mice; VH SEQ ID NO: 260, VL SEQ ID NO: 317 (antibody, V domains shown)
VH: QIQLVQSGPELKKPGETVKISCKASGYTFTNYGMNWVKQAPGKVLKWMGWINTYTGEPIYTDDFKGRFAFSLETSASTAYLQINNLKNEDTATYFCSRSTMITTGGVFAYWGQGTLVTVSA
VL: DVLMAQTPLSLPVSLGDQASISCRSSQTIVHSDGNTYLEWYLQKPGQSPKLLIYKVSNRFSGVPDRFSGSGSGTDFTLKISRVEAEDLGVYYCFQGSHVPWTFGGGTKLEIK
modifications: PR302309-1 VH, PR302309-2 VH, PR302309-3 VH, PR302309-4 VH,PR302309-5 VH, PR302309-6 VH, PR302309 VH; PR302309-13 VL, PR302309-14 VL, PR302309-15 VL, PR302309-16 VL,PR302309 VL

system: human CRHR2; experiment: CRH-induced luciferase reporter blocking assay, CHO-CRE-hCRHR2 cells; format: cell-based; conditions: CHO-CRE-hCRHR2 cells, 0.1 nM CRH
Description: (§1) To create CHO-CRE-hCRHR1, -hCRHR2, -mCRHR1, and -mCRHR2 reporter cell lines, pcDNA3.1-hCRHR1, -hCRHR2, -mCRHR1, and -mCRHR2 were introduced into CHO-CRE cells established above by electroporation as described above. Selection antibiotics hygromycin at 500 μg/ml and G418 at 1,000 μg/ml were employed. Individual established stable cell lines were characterized by both CRH and forskolin stimulation.
Activated GPCR proteins increase production of the intracellular cAMP. CHO-CRE-human CRHR1 stable clone 11 was generated by introduction of pcDNA3.1-human CRHR1 under the selection of G418 and hygromycin. Human CRHR1 expression in CHO-CRE-hCRHR1 Clone 11 was confirmed by flow cytometry (data not shown). To further validate that the cell line was functional, CHO-CRE-hCRHR1 Clone 11 cells were treated with forskolin and CRH peptide. […] Subsequently CHO-CRE-hCRHR2 Clone 32, -mCRHR1 Clone 22, and -mCRHR2 Clone 8 cell lines were established using similar methodology and validated with CRH treatment (data not shown).
Blocking CRHR1 by small molecules or neutralization of CRH peptide can reduce luciferase expression if the CRH-CRHR1 system works in CHO-CRE-hCRHR1 cells. Antalarmin, a small molecule CRHR1 antagonist, blocked CRH-mediated luciferase expression in CHO-CRE-hCRHR1 Clone 11 (data not shown). Furthermore, sheep anti-CRH polyclonal antibody reduced CRH-mediated luciferase expression in these cells (data not shown). Likewise, sheep anti-CRH polyclonal antibody blocked CRH-mediated luciferase expression in CHO-CRE-hCRHR2, CHO-CRE-mCRHR1, and CHO-CRE-mCRHR2 cells (data not shown).
(§2) Cells were digested by trypsin-EDTA (Life technologies, Cat #:12604-013), centrifuged at 1,000 rpm for 5 min, resuspended in growth medium, counted using a cell counter, seeded at a concentration of 5,000 cells per 100 μl in 96-well flat plates, and incubated overnight. 50 μl of 4× serially diluted antibodies was added (8 points, 1/4 diluted by growth medium) to plates containing CHO-CRE-hCRHR1 cells, and 50 μl of 4×CRH (4× is 2 nM, final is 0.5 nM) was added. Similarly, 4×CRH (4× is 0.4 nM, final is 0.1 nM) was added to CHO-CRE-hCRHR2 cells and CHO-CRE-mCRHR1 cells, and 4×CRH (4× is 20 nM, final is 5 nM) was added to CHO-CRE-mCRHR2 cells. Next, plates were incubated 4-6 hours at 37° C. in a CO2 incubator. 60 μl of culture medium was removed, to which was added 60 μl of Bio-Glo luciferase, followed by incubation for 10 min at RT. Plates were read in a luciferase plate reader (EnVision, PerkinElmer).

IC50	Molecule
0.272 nM	B1
0.127 nM	B2
0.099 nM	B3
2.32 nM	B4
0.803 nM	B5

same assay, conditions: Table 9; hCRHR2

IC50	Molecule
1.38 nM	B2

system: mouse CRHR2; experiment: CRH-induced luciferase reporter blocking assay, CHO-CRE-mCRHR2 cells; format: cell-based; conditions: CHO-CRE-mCRHR2 cells, 5 nM CRH
Description: as §1, with “stimulation. […]” for “stimulation.”
as §2

IC50	Molecule
0.633 nM	B1
0.501 nM	B2
~0.457 nM	B3
2.74 nM	B4
0.995 nM	B5

same assay, conditions: Table 9; mCrhr2

IC50	Molecule
1.37 nM	B2

biological target: T1, biotinylated CRH; experiment: Affinity determination with Octet; format: binding; conditions: not given
Description: Octet® Red 96e was used for affinity measurement. Octet® running buffer was prepared by diluting kinetics buffer 10× (Fortebio, Cat #18-1105) in PBS according to the manufacturer's instructions. Two columns of SA sensors (Fortebio, Cat #18-5019) were hydrated in running buffer for 10 mins, one for ligand capturing and the other for reference. Antibodies were 2-fold diluted and added into a 96-well plate. 30 nM biotinylated CRH (GL Biochem, Cat #784751) was captured by the first column of SA sensors for 20 seconds, while reference sensors were dipped into buffer wells. After a 60-second baseline step, sensors were dipped into analyte and buffer wells successively, with the association and dissociation time of 180 seconds and 800 seconds, respectively. Sensors were regenerated in glycine pH1.5 (Cytiva, Cat #BR-1003-54) before the next cycle. […] Signals of reference wells and reference sensors were subtracted by selecting “Double reference” before data fitting.

kdis	kon	Molecule
<1e-07 s⁻¹	14700 M⁻¹ s⁻¹	B4
<1e-07 s⁻¹	285000 M⁻¹ s⁻¹	B6
<1e-07 s⁻¹	684000 M⁻¹ s⁻¹	B7
4.03e-06 s⁻¹	263000 M⁻¹ s⁻¹	B8
<1e-07 s⁻¹	669000 M⁻¹ s⁻¹	B5
